From the supplement of paper PMC7877785
± gives the uncertainty stated by the source.

Experiment: self-splicing fitness, log relative to wild type (ln ratio); higher = more splicing; Tetrahymena group I intron in knt gene, E. coli kanamycin selection, DiMSum; sequences stand for … in CUCUCU…GGAGGGAAAAGUUAUCAGGCAUGCACCUGGUAGCUAGUCUUUAAACCAAUAGAUUGCAUCGGUUUAAAAGGCAAGACCGUCAAAUUGCGGGAAAGGGGUCAACAGCCGUUCAGUACCAAGUCUCAGGGGAAACUUUGAGAUGGCCUUGCAAAGGGUAUGGUAAUAAGCUGACGGACAUGGUCCUAACCACGCAGCCAAGUCCUAAGUCAACAGAUCUUCUGUUGAUAUGGAUGCAGUUCACAGACUAAAUGUCGGUCGGGGAAGAUGUAUUCUUCUCAUAAGAUAUAGUCGGACCUCUCCUUAAUGGGAGCUAGCGGAUGAAGUGAUGCAACACUGGAGCCGCUGGGAACUAAUUUGUAUGCGAAAGUAUAUUGAUUAGUUUUGGAGUACUCGUGGUCG
Outline: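 A randomised library covering all eight P1ex-region intron nucleotides was built with the intron in the knt kanamycin-resistance gene on pET-22b(+) and held in E. coli BL21(DE3). Cells were grown overnight at 37°C or 30°C on LB agar, with or without 25 μg/mL kanamycin, plus 100 μg/mL carbenicillin, 50 μM IPTG and 0.2% rhamnose, and pooled colonies were amplicon-sequenced on an Illumina HiSeq 2500. DiMSum fitness is the error-weighted combination of wild-type-normalised replicate fold changes, kanamycin versus none.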

Row | Sequence | self-splicing fitness (ln) (30 °C) | self-splicing fitness (ln) (37 °C)
1 | ACGCAGCAAUAUUACGGGCU | -2.46 ± 0.11 | -1.36 ± 0.12
2 | GGCUAGCAAUAUUACGAGCG | -1.17 ± 0.14 | -0.288 ± 0.17
3 | GACCAGCAAUAUUACGAGUA | -1.03 ± 0.087 | 0.128 ± 0.084
4 | GUUGAGCAAUAUUACGCGAU | -3.79 ± 0.3 | -2.47 ± 0.34
5 | CUCCAGCAAUAUUACGGCGU | -3.61 ± 0.17 | -3.4 ± 0.23
6 | ACACAGCAAUAUUACGAAGC | -4.18 ± 0.22 | -2.8 ± 0.21
7 | CAUUAGCAAUAUUACGACAG | 0.268 ± 0.06 | 0.168 ± 0.071
8 | UAUCAGCAAUAUUACGGCCA | 0.201 ± 0.12 | 0.167 ± 0.11
9 | GGCCAGCAAUAUUACGUUGA | -2.04 ± 0.12 | -1.27 ± 0.12
10 | UACUAGCAAUAUUACGGCAA | -0.353 ± 0.12 | 0.301 ± 0.12
11 | UUCAAGCAAUAUUACGCGUG | -3.38 ± 0.17 | -2.13 ± 0.17
12 | CGCGAGCAAUAUUACGCAAA | -2.95 ± 0.38 | -3.4 ± 0.43
13 | GAUAAGCAAUAUUACGAACU | -0.896 ± 0.079 | -0.073 ± 0.11
14 | AUGGAGCAAUAUUACGGUGU | -2.12 ± 0.18 | -0.816 ± 0.24
15 | ACCUAGCAAUAUUACGUUUU | -2.61 ± 0.091 | -1.44 ± 0.1
16 | GGCCAGCAAUAUUACGGAUU | -0.639 ± 0.056 | -0.524 ± 0.063
17 | AGGGAGCAAUAUUACGUGCA | -4.52 ± 0.34 | -2.5 ± 0.24
18 | UCGCAGCAAUAUUACGCGAG | -2.85 ± 0.15 | -2.56 ± 0.15
19 | GAGCAGCAAUAUUACGCUAU | -2.73 ± 0.27 | -1.93 ± 0.17
20 | UUUUAGCAAUAUUACGCUGA | -1.89 ± 0.36 | -2.31 ± 0.39
21 | GGCAAGCAAUAUUACGAUGA | -1.07 ± 0.11 | -0.765 ± 0.13
22 | AAUAAGCAAUAUUACGGCCU | -0.0966 ± 0.09 | -0.0762 ± 0.13
23 | GAUCAGCAAUAUUACGUGAU | -3.23 ± 0.18 | -2.93 ± 0.22
24 | ACCCAGCAAUAUUACGGUUA | -0.324 ± 0.059 | -0.361 ± 0.06

Row | Sequence | self-splicing fitness (ln) (30 °C) | self-splicing fitness (ln) (37 °C)
25 | GGCAAGCAAUAUUACGUGGA | -1.28 ± 0.077 | -0.277 ± 0.073
26 | GGGUAGCAAUAUUACGCGGU | -3.15 ± 0.21 | -1.4 ± 0.2
27 | UCUGAGCAAUAUUACGCCUU | -3.06 ± 0.12 | -1.54 ± 0.14
28 | ACCUAGCAAUAUUACGGGGG | -3.84 ± 0.2 | -1.59 ± 0.17
29 | CCCGAGCAAUAUUACGCCUU | -2.99 ± 0.2 | -1.56 ± 0.34
30 | AAUUAGCAAUAUUACGGCGC | -0.632 ± 0.13 | -0.211 ± 0.13
31 | GCGCAGCAAUAUUACGACGG | -1.13 ± 0.14 | -0.906 ± 0.17
32 | UUUCAGCAAUAUUACGCAAC | -3.51 ± 0.28 | -1.8 ± 0.22
33 | GCAAAGCAAUAUUACGCGUU | -1.96 ± 0.13 | -2.03 ± 0.2
34 | UGCGAGCAAUAUUACGGCCU | -1.85 ± 0.2 | -1.45 ± 0.24
35 | GGAUAGCAAUAUUACGUCCU | -3.13 ± 0.19 | -1.84 ± 0.24
36 | CACUAGCAAUAUUACGAUCG | 0.531 ± 0.067 | 0.717 ± 0.071
37 | GAUAAGCAAUAUUACGCCCA | -0.168 ± 0.13 | -0.865 ± 0.14
38 | GGUCAGCAAUAUUACGGGUC | -1.54 ± 0.13 | -1.58 ± 0.16
39 | GGUUAGCAAUAUUACGGAAU | -2.21 ± 0.25 | -1.01 ± 0.25
40 | AACAAGCAAUAUUACGGCGG | -0.998 ± 0.078 | -0.826 ± 0.1
41 | GCUGAGCAAUAUUACGGUCU | -2.03 ± 0.2 | -1.65 ± 0.21
42 | GACUAGCAAUAUUACGCACA | -0.58 ± 0.13 | 0.00566 ± 0.14
43 | UGGUAGCAAUAUUACGGAAC |  | -0.88 ± 0.24
44 | UUACAGCAAUAUUACGGGUU | -3.73 ± 0.12 | -2.34 ± 0.12
45 | CGAUAGCAAUAUUACGCGAG | -3.16 ± 0.26 | -2.42 ± 0.2
46 | CCCGAGCAAUAUUACGGGCG | -3.03 ± 0.19 | -2.47 ± 0.25
47 | GCGGAGCAAUAUUACGAUGC | -1.81 ± 0.37 | 
48 | AUCCAGCAAUAUUACGGAUA | -3.19 ± 0.18 | -0.948 ± 0.12
